Consider 22 sequences from the supplement of paper PMC9170038.

The series concerns MS2 coat protein. The series is described as follows: apparent KD of MS2 coat protein; designed switch direction (-1 OFF switch, 1 ON switch): -1; higher = weaker reporter binding. Put shortly: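 Designed RNA switches with common flanks were made on Illumina chips by stalled E. coli RNA polymerase. Titration with SNAP-549-labelled MS2 coat protein doubled from 0.7 or 1.5 nM up to 3 µM. Apparent KD is each design's median over clusters after curve-fitting normalised fluorescence.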

The mark [1] stands for this setting: input ligand: microRNA oligo, concentration not stated.
The mark [2] stands for this setting: Eterna round: R95, input ligand: microRNA oligo, concentration not stated.
Where [3] appears, read: Eterna round: R95, input ligand: FMN 200 uM.
Setting [4] is: Eterna round: R95, input ligand: none.

Take “GCGCACCUACCAAAAGGUAGGCCGACAUGAGGAUCACCCAUGUAGGAUAUCGAUUGCUUUGCAGUCGAGAAGGACGUGAUGCGC [JL ENG3 3.80 Mod 18] (Eterna round: R96, puzzle: Exclusion NG 3)”: the “apparent KD of MS2 coat protein” value was 20.1 nM (input ligand: FMN 200 uM), 14.7 nM under setting [1] and 19.4 nM (input ligand: none).

Take “GCGCCAUCGUGAGAUGGCGUACCGACAUGAGGAUCACCCAUGUAGGAUAUCGAUUGCUUUGCAGUCGAGAAGGGCGUGAUAAGU [JL ENG3 3.74] (Eterna round: R96, puzzle: Exclusion NG 3)”: the “apparent KD of MS2 coat protein” value reads like this: (input ligand: FMN 200 uM) 27.8 nM; under setting [1], 24.7 nM; (input ligand: none) 29.5 nM.

As to “GCGCCAUCGUGAGAUGGCGUAUAUACAUGAGGAUCACCCAUGUAGGAUAUCGAUUGCUUUGCAGUCGAGAAGGGCGUGAUAAUU [JL ENG3 3.69] (Eterna round: R96, puzzle: Exclusion NG 3)”, the “apparent KD of MS2 coat protein” value by setting is: (input ligand: FMN 200 uM) 109 nM; under setting [1], 60.5 nM; (input ligand: none) 82 nM.

For “GCGUCGAGUGUGAGGAUAUGCUGGUCCUUGGAUCAGCAGAAGGCACAUGAGGAUCACCCAUGUGAAAACGAUGC [Mat - Exclusion 4 - JL Mod - D68] (puzzle: Brourd's mod of Exclusion 4)”, under setting [2], the “apparent KD of MS2 coat protein” value was 18.8 nM.

Consider “GCGUGGACUGAGGAUAUCCGAACGGUGCACGGAGGAGAAGGUAGGACAUGAGGAUCACCCAUGUGAACCUAGAU [Ceinormaat] (Eterna round: R97, puzzle: Exclusion 6)”, for which the “apparent KD of MS2 coat protein” value is, setting by setting: (input ligand: FMN 200 uM) 20.6 nM; (input ligand: none) 19.8 nM.

Turning to “GCUAGAGCAGGAUAUUUAGAUCCUCACAUGAGGAUCACCCAUGUGGCCGAAAGGCUAAGGAGAGAAGGGCUCUAGC [Omei Ex5 E23] (Eterna round: R97, puzzle: Exclusion 5)”, the “apparent KD of MS2 coat protein” value turned out to be 1580 nM (input ligand: FMN 200 uM) and 933 nM (input ligand: none).

For the sequence “GCUAGGAGUGUGAGGAUAUGCUGAUCCUUGGAUCAGCAGAAGGCACAUGAGGAUCACCCAUGUGAAGACCUAGC [Mat - Exclusion 4 - JL Mod - D2] (Eterna round: R97, puzzle: Brourd's mod of Exclusion 4)”, the “apparent KD of MS2 coat protein” value is, setting by setting: (input ligand: FMN 200 uM) 169 nM; (input ligand: none) 30 nM.

For the sequence “GCUCGUCUUGUAAUGUUUAACAUGAGGAUCACCCAUGUCACCAACGUCGGAGAUGCAGGUUCAUGUUUUAAUGUAUA [Eternabot (L2) Solution 23] (Eterna round: R97, puzzle: Sensor, turn-off variant 1)”, the “apparent KD of MS2 coat protein” value (input ligand: FMN 200 uM) was found to be 83.5 nM and the “apparent KD of MS2 coat protein” value (input ligand: none) is 82.6 nM.

Regarding “GCUGAAGGGUCGAUUACCAACAUGAGGAUCACCCAUGUUCGGAAUAAUUACAGGUUCGCUCGUCUCGAUGAAAGUCC [Eternabot (L1) Solution 19] (Eterna round: R97, puzzle: Sensor, turn-off variant 1)”, the “apparent KD of MS2 coat protein” value reads like this: (input ligand: FMN 200 uM) 19.3 nM; (input ligand: none) 21.7 nM.

With “GCUGCACAUGUAGGAUAUCUGCACGUUUAGUGCAGAGAAGGACAUGAGGAUCACCCAUGUAGAUCAGCAGCAAUUAAUUUAAUU [ENG1/6-A3] (Eterna round: R96, puzzle: Exclusion NG 1)”, the “apparent KD of MS2 coat protein” value worked out at 809 nM (input ligand: FMN 200 uM), 479 nM under setting [1] and 473 nM (input ligand: none).

Take “GCUGGACAAGGAUAUGCAAUCGUGCUUCGGCACGUAAGGUCACAUGAGGAUCACCCAUGUAGAAGGUGUCCAGC [E2/4-C2] (Eterna round: R97, puzzle: Exclusion 2)”: the “apparent KD of MS2 coat protein” value was 31.3 nM (input ligand: FMN 200 uM) and 16.1 nM (input ligand: none).

As for “GCUGGGUCAGGAUAUACAGGGUCGAAAGAUCUGUGAUACCUACAUGAGGAUCACCCAUGUAGAAGGGACUGGGC [ChP 11-04-2015 #10] (Eterna round: R96, puzzle: Exclusion 2)”, the “apparent KD of MS2 coat protein” value reads like this: (input ligand: FMN 200 uM) 43.9 nM; under setting [1], 14 nM; (input ligand: none) 18.9 nM.

Turning to “GCUGGGUCAGGAUAUACAGGGUCGAAAGAUCUGUGAUACCUACAUGAGGAUCACCCAUGUAGAAGGGACUGGGC [ChP 11-04-2015 #10] (puzzle: Exclusion 2)”, under setting [2], the “apparent KD of MS2 coat protein” value stood at 14.2 nM.

Turning to “GCUGGGUCAGGAUAUACGAGAUCGAAAGAUCGAAGAUCCGUACAUGAGGAUCACCCAUGUAGAAGGGACUGGGC [ChP 11-04-2015 #7] (puzzle: Exclusion 2)”, under setting [2], the “apparent KD of MS2 coat protein” value worked out at 19.5 nM.

Turning to “GCUGGUCGAGGAUAUACAUGAGGAUCACCCAUGUGAUCAGCAGUCCUCGGACUGCAAUGUAGAAGGUGACCAGC [E3/1-B1] (Eterna round: R97, puzzle: Exclusion 3)”, the “apparent KD of MS2 coat protein” value came out at 583 nM (input ligand: FMN 200 uM) and 2270 nM (input ligand: none).

For the sequence “GCUUGGCGAGGAUAUACAUGAGGAUCACCCAUGUGAGAGAAAAAAGUGAGGAAGAAAAGUAGAAGGCGCUGAGG [Mat - Exclusion 3 - Mod of Salish D57] (puzzle: Exclusion 3)”, the “apparent KD of MS2 coat protein” value under setting [3] turned out to be 143 nM, the “apparent KD of MS2 coat protein” value under setting [2] worked out at 51.2 nM and the “apparent KD of MS2 coat protein” value under setting [4] was 61.8 nM.

Take “GCUUGUAGAGGAUAUACGAGGGCCCGAGCGGCGAGAGCCGCACAUGAGGAUCACCCAUGUAGAAGGCUACUAUU [JL-ex2-4.19 ViennaUCT mod] (Eterna round: R97, puzzle: Exclusion 2)”: the “apparent KD of MS2 coat protein” value by setting is: (input ligand: FMN 200 uM) 358 nM; (input ligand: none) 133 nM.

Turning to “GGAAAACAUGAGGAUCACCCAUGUAAGGAUAUGCAAAAGGAUAUAGAAGGAAAAAUAAGCAGAAGGUACAAAGG [salish99-ex1_r3_097] (puzzle: Exclusion 1)”, the “apparent KD of MS2 coat protein” value under setting [3] worked out at 50.9 nM, the “apparent KD of MS2 coat protein” value under setting [2] was found to be 42.5 nM and the “apparent KD of MS2 coat protein” value under setting [4] was determined as 43.5 nM.

Turning to “GGAAACCUACCGCGACAUGAGGAUCACCCAUGUGAUUGGUUUUAGGAUAUCUGGAGAAUCCAGACAGAGAAGGAGGGCCGUCGC [Eternabot solution 38] (Eterna round: R96, puzzle: Exclusion NG 3)”, the “apparent KD of MS2 coat protein” value reads like this: (input ligand: FMN 200 uM) 77.5 nM; under setting [1], 28.5 nM; (input ligand: none) 45.1 nM.

With “GGAAAGGUAGGAUAUACGAAGAAAAAGGGUAGAAGAAGAACACAUGAGGAUCACCCAUGUAGAAGGACCAAAGC [Mat - Exclusion 2 - Mod of my Tesla design - D15] (puzzle: Exclusion 2)”, the “apparent KD of MS2 coat protein” value is, setting by setting: under setting [3], 56.5 nM; under setting [2], 20.9 nM; under setting [4], 23.9 nM.

On to “GGAAAGGUAGGAUAUACGAAGAAAAAGGGUAGAAGAAUAACACAUGAGGAUCACCCAUGUAGAAGGACCAAAGC [Mat - Exclusion 2 - Mod of my Tesla design - D14] (puzzle: Exclusion 2)”, for which the “apparent KD of MS2 coat protein” value runs as follows: under setting [3], 96.8 nM; under setting [2], 25.1 nM; under setting [4], 25.8 nM.

For the sequence “GGAAGGCGAGGAUAUGCAAUAAAGCAGGCGAAGGCCUGCAAACAUGAGGAUCACCCAUGUAGAAGGCGCGAGAA [AK-MS2ROC-r4-exclusion2-6.6] (Eterna round: R97, puzzle: Exclusion 2)”, the “apparent KD of MS2 coat protein” value is, setting by setting: (input ligand: FMN 200 uM) 17.2 nM; (input ligand: none) 26.1 nM.
